Measured values as given in patent US20120316071A1 (published 2012).
Positions count from the first letter of the chain named. Numbers in names are those of the source. Each block holds one binder with its values, some of them ahead of it.

Columns and labels:
[1] = target: T1, Recombinant Human DLL4 (delta-like protein 4) (human, UniProt Q9NR61 27-524); test: ECL (Meso Scale Discovery) binding assay on immobilised DLL4, Fab 10 nM
T1 construct: also called rHuman DLL4

Recombinant Human DLL4 [2] = target: T2, Recombinant Human DLL4 (human, UniProt Q9NR61 27-524); test: ELISA, DLL4 coated on plate, Fab in solution, absorbance at 450 nm; signal minus noise
T2 construct: Bought recombinant human DLL4 (R&D Systems Cat#1506-D4/CF); That entry includes the signal peptide (amino acids 1-25), the transmembrane region and the cytoplasmic domain; also called delta-like protein 4; Delta-like ligand 4

Recombinant Human DLL4 [3] = target: T2, Recombinant Human DLL4; test: ECL (MSD) multispot binding assay, DLL4 spotted on plate, purified Fab in solution; signal over blank
[4] = target: T3, Recombinant Human DLL4 (delta-like protein 4) (human, UniProt Q9NR61 27-524); test: ELISA, Fab on plate-coated DLL4
T3 construct: also called rHuman DLL4; Delta-like 4

[5] = target: T3, Recombinant Human DLL4 (delta-like …); test: ECL (MSD) binding assay, Fab on immobilized DLL4

Signal [10 nM Fab] [1]: 13500
B1: Fab VH1-46_IGHD6-6*01_IGHJ1*01 S102A/S103P/S104F/H111F (APFF) & L6_IGKJ1*01 (Fab, V domains shown)
VH: QVQLVQSGAEVKKPGASVKVSCKASGYTFTSYYMHWVRQAPGQGLEWMGIINPSGGSTSYAQKFQGRVTMTRDTSTSTVYMELSSLRSEDTAVYYCAREEYAPFSAEYFQFWGQGTLVTVSS
VL: not shown
notes: Fab made in E. coli: VH in plasmid A (CH1, His6 and Flag tags), VL in plasmid C (kappa CL); also called H:APFF & L:wt; APFF mutant

Signal [10 nM Fab] [1]: 13400
B2: Fab VH1-46_IGHD6-6*01_IGHJ1*01 S102A/S103P/S104F/H111F (APFF) & L6_IGKJ1*01 S76G (Fab, V domains shown)
VH: B1 VH
VL: EIVLTQSPATLSLSPGERATLSCRASQSVSSYLAWYQQKPGQAPRLLIYDASNRATGIPARFSGSGSGTDFTLTIGSLEPEDFAVYYCQQRSNWPPWTFGQGTKVEIKR
notes: Fab made in E. coli: VH in plasmid A (CH1, His6 and Flag tags), VL in plasmid C (kappa CL); also called H:APFF & L6_IGKJ1*01 S76G

ELISA (Signal-Noise) (Recombinant Human DLL4 [2]): 0.02
ECL Signal/Blank (Recombinant Human DLL4 [3]): 67.9
B3: Fab VH5-51_IGHD5-18*01>3_IGHJ4*01 G100K/G104T F29A & V3-4_IGLJ1*01 (Fab, V domains shown)
VH: EVQLVQSGAEVKKPGESLKISCKGSGYSATSYWIGWVRQMPGKGLEWMGIIYPGDSDTRYSPSFQGQVTISADKSISTAYLQWSSLKASDTAMYYCARRKYSYTYDYFDYWGQGTLVTVSS
VL: QTVVTQEPSFSVSPGGTVTLTCGLSSGSVSTSYYPSWYQQTPGQAPRTLIYSTNTRSSGVPDRFSGSILGNKAALTITGAQADDESDYYCVLYMGSGISYVFGTGTKVTVL
notes: Fab expressed in E. coli with CH1 (plasmid A, His6 and Flag tags) and lambda CL (plasmid E); also called KT F29A

ELISA (Signal-Noise) [4]: 0.07
ECL signal [5]: 14500
B4: Fab VH5-51_IGHD5-18*01>3_IGHJ4*01 G100K/G104T G35T & V3-4_IGLJ1*01 (Fab, V domains shown)
VH: B3 VH with A29F, G35T
VL: B3 VL
notes: Fab from E. coli: VH-CH1 from Plasmid A with His6 and Flag tags, VL with lambda CL from Plasmid E; also called KT G35T

ELISA (Signal-Noise) (Recombinant Human DLL4 [2]): 0.01
ECL Signal/Blank (Recombinant Human DLL4 [3]): 112
B5: Fab VH5-51_IGHD5-18*01>3_IGHJ4*01 G100K/G104T S28A & V3-4_IGLJ1*01 (Fab, V domains shown)
VH: B3 VH with S28A, A29F
VL: B3 VL
notes: Fab expressed in E. coli with CH1 (plasmid A, His6 and Flag tags) and lambda CL (plasmid E); also called KT S28A

ELISA (Signal-Noise) [4]: 0.09
ECL signal [5]: 21200
B6: Fab VH5-51_IGHD5-18*01>3_IGHJ4*01 G100K/G104T G35V & V3-4_IGLJ1*01 (Fab, V domains shown)
VH: B3 VH with A29F, G35V
VL: B3 VL
notes: Fab from E. coli: VH-CH1 from Plasmid A with His6 and Flag tags, VL with lambda CL from Plasmid E; also called KT G35V

ELISA (Signal-Noise) (Recombinant Human DLL4 [2]): 0.02
ECL Signal/Blank (Recombinant Human DLL4 [3]): 122
B7: Fab VH5-51_IGHD5-18*01>3_IGHJ4*01 G100K/G104T G24A & V3-4_IGLJ1*01 (Fab, V domains shown)
VH: B3 VH with G24A, A29F
VL: B3 VL
notes: Fab expressed in E. coli with CH1 (plasmid A, His6 and Flag tags) and lambda CL (plasmid E); also called KT G24A

ELISA (Signal-Noise) [4]: 0.06
ECL signal [5]: 19700
B8: Fab VH5-51_IGHD5-18*01>3_IGHJ4*01 G100K/G104T G35A & V3-4_IGLJ1*01 (Fab, V domains shown)
VH: B3 VH with A29F, G35A
VL: B3 VL
notes: Fab from E. coli: VH-CH1 from Plasmid A with His6 and Flag tags, VL with lambda CL from Plasmid E; also called KT G35A

ELISA (Signal-Noise) [4]: 0.09
ECL signal [5]: 17300
B9: Fab VH5-51_IGHD5-18*01>3_IGHJ4*01 G100K/G104T S28N & V3-4_IGLJ1*01 (Fab, V domains shown)
VH: B3 VH with S28N, A29F
VL: B3 VL
notes: Fab from E. coli: VH-CH1 from Plasmid A with His6 and Flag tags, VL with lambda CL from Plasmid E; also called KT S28N

ELISA (Signal-Noise) (Recombinant Human DLL4 [2]): 0.02
ECL Signal/Blank (Recombinant Human DLL4 [3]): 180
B10: Fab VH5-51_IGHD5-18*01>3_IGHJ4*01 G100K/G104T G35A & V3-4_IGLJ1*01 (Fab, V domains shown)
VH: B3 VH with A29F, G35A
VL: B3 VL
notes: Fab expressed in E. coli with CH1 (plasmid A, His6 and Flag tags) and lambda CL (plasmid E); also called KT G35A

ELISA (Signal-Noise) [4]: 0.29
ECL signal [5]: 51400
B11: Fab VH5-51_IGHD5-18*01>3_IGHJ4*01 G100K/G104T S28R & V3-4_IGLJ1*01 (Fab, V domains shown)
VH: B3 VH with S28R, A29F
VL: B3 VL
notes: Fab from E. coli: VH-CH1 from Plasmid A with His6 and Flag tags, VL with lambda CL from Plasmid E; also called KT S28R

ELISA (Signal-Noise) (Recombinant Human DLL4 [2]): 0
ECL Signal/Blank (Recombinant Human DLL4 [3]): 69.4
B12: Fab VH5-51_IGHD5-18*01>3_IGHJ4*01 G100K/G104T T30A & V3-4_IGLJ1*01 (Fab, V domains shown)
VH: B3 VH with A29F, T30A
VL: B3 VL
notes: Fab expressed in E. coli with CH1 (plasmid A, His6 and Flag tags) and lambda CL (plasmid E); also called KT T30A
